This note sets out measurements from IntAct's records for PubMed 31515488.

B1: Mothers against decapentaplegic homolog 3 (Homo sapiens), P84022 (parent)
chain: MSSILPFTPPIVKRLLGWKKGEQNGQEEKWCEKAVKSLVKKLKKTGQLDELEKAITTQNVNTKCITIPRSLDGRLQVSHRKGLPHVIYCRLWRWPDLHSHHELRAMELCEFAFNMKKDEVCVNPYHYQRVETPVLPPVLVPRHTEIPAEFPPLDDYSHSIPENTNFPAGIEPQSNIPETPPPGYLSEDGETSDHQMNHSMDAGSPNLSPNPMSPAHNNLDLQPVTYCEPAFWCSISYYELNQRVGETFHASQPSMTVDGFTDPSNSERFCLGLLSNVNRNAAVELTRRHIGRGVRLYYIGGEVFAECLSDSAIFVQSPNCNQRYGWHPATVCKIPPGCNLKIFNNQEFAALLAQSVNQGFEAVYQLTRMCTIRMSFVKGWGAEYRRQTVTSTPCWIELHLNGPLQWLDKVLTQMGSPSIRCSSVS
B2: Membrane protein FAM174A (Homo sapiens), Q8TBP5 (parent)
chain: MKASQCCCCLSHLLASVLLLLLLPELSGPLAVLLQAAEAAPGLGPPDPRPRTLPPLPPGPTPAQQPGRGLAEAAGPRGSEGGNGSNPVAGLETDDHGGKAGEGSVGGGLAVSPNPGDKPMTQRALTVLMVVSGAVLVYFVVRTVRMRRRNRKTRRYGVLDTNIENMELTPLEQDDEDDDNTLFDANHPRR
partner: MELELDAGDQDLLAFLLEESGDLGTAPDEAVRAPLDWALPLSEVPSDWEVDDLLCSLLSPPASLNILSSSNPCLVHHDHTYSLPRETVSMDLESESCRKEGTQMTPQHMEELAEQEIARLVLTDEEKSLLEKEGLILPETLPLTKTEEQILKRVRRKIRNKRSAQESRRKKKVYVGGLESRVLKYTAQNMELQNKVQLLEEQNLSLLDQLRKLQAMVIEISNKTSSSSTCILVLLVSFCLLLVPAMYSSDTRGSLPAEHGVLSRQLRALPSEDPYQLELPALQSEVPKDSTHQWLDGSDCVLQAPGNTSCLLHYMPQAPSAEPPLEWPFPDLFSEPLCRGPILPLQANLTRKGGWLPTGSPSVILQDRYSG
B3: Ribosome quality control complex subunit TCF25 (Homo sapiens), Q9BQ70 (parent)
chain: MSRRALRRLRGEQRGQEPLGPGALHFDLRDDDDAEEEGPKRELGVRRPGGAGKEGVRVNNRFELINIDDLEDDPVVNGERSGCALTDAVAPGNKGRGQRGNTESKTDGDDTETVPSEQSHASGKLRKKKKKQKNKKSSTGEASENGLEDIDRILERIEDSTGLNRPGPAPLSSRKHVLYVEHRHLNPDTELKRYFGARAILGEQRPRQRQRVYPKCTWLTTPKSTWPRYSKPGLSMRLLESKKGLSFFAFEHSEEYQQAQHKFLVAVESMEPNNIVVLLQTSPYHVDSLLQLSDACRFQEDQEMARDLVERALYSMECAFHPLFSLTSGACRLDYRRPENRSFYLALYKQMSFLEKRGCPRTALEYCKLILSLEPDEDPLCMLLLIDHLALRARNYEYLIRLFQEWEAHRNLSQLPNFAFSVPLAYFLLSQQTDLPECEQSSARQKASLLIQQALTMFPGVLLPLLESCSVRPDASVSSHRFFGPNAEISQPPALSQLVNLYLGRSHFLWKEPATMSWLEENVHEVLQAVDAGDPAVEACENRRKVLYQRAPRNIHRHVILSEIKEAVAALPPDVTTQSVMGFDPLPPSDTIYSYVRPERLSPISHGNTIALFFRSLLPNYTMEGERPEEGVAGGLNRNQGLNRLMLAVRDMMANFHLNDLEAPHEDDAEGEGEWD
B4: Dynein light chain 2, cytoplasmic (Homo sapiens), Q96FJ2 (parent)
chain: MSDRKAVIKNADMSEDMQQDAVDCATQAMEKYNIEKDIAAYIKKEFDKKYNPTWHCIVGRNFGSYVTHETKHFIYFYLGQVAILLFKSG
partner: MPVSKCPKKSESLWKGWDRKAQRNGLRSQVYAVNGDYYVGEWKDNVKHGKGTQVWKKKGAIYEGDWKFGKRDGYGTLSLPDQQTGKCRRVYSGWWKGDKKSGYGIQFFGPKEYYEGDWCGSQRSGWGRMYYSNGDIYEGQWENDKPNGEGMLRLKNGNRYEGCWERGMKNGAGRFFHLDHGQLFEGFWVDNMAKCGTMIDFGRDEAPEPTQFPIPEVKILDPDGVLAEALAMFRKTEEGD
B5: Protein DDI1 homolog 1 (Homo sapiens), Q8WTU0 (parent)
chain: MLITVYCVRRDLSEVTFSLQVSPDFELRNFKVLCEAESRVPVEEIQIIHMERLLIEDHCSLGSYGLKDGDIVVLLQKDNVGPRAPGRAPNQPRVDFSGIAVPGTSSSRPQHPGQQQQRTPAAQRSQGLASGEKVAGLQGLGSPALIRSMLLSNPHDLSLLKERNPPLAEALLSGSLETFSQVLMEQQREKALREQERLRLYTADPLDREAQAKIEEEIRQQNIEENMNIAIEEAPESFGQVTMLYINCKVNGHPLKAFVDSGAQMTIMSQACAERCNIMRLVDRRWAGVAKGVGTQRIIGRVHLAQIQIEGDFLQCSFSILEDQPMDMLLGLDMLRRHQCSIDLKKNVLVIGTTGTQTYFLPEGELPLCSRMVSGQDESSDKEITHSVMDSGRKEH
partner: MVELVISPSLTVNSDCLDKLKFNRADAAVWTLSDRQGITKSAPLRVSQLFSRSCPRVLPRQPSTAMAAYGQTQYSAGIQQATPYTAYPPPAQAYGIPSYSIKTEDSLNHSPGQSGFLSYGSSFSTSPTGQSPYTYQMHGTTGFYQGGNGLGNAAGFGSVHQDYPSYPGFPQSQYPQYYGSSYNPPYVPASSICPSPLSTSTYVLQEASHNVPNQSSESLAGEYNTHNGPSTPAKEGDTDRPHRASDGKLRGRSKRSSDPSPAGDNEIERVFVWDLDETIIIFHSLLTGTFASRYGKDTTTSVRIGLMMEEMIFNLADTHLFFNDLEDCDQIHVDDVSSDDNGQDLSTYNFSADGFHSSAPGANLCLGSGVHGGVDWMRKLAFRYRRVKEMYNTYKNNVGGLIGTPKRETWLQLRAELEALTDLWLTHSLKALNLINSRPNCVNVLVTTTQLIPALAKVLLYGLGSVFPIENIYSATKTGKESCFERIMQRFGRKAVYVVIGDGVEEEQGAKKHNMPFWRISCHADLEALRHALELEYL
B6: Microtubule-associated tumor suppressor candidate 2 (Homo sapiens), Q5JR59-3 (parent)
chain: MGHCCCKPYNCLQCLDKTNESALVKEKELSIELANIRDEVAFHTAKCEKLQKEKEELERRFEDEVKRLGWQQQAELQELEERLQLQFEAEMARLQEEHGDQLLSIRCQHQEQVEDLTASHDAALLEMENNHTVAITILQDDHDHKVQELMSTHELEKKELEENFEKLRLSLQDQVDTLTFQSQSLRDRARRFEEALRKNTEEQLEIALAPYQHLEEDMKSLKQVLEMKNQQIHEQEKKILELEKLAEKNIILEEKIQVLQQQNEDLKARIDQNTVVTRQLSEENANLQEYVEKETQEKKRLSRTNEELLWKLQTGDPTSPIKLSPTSPVYRGSSSGPSSPARVSTTPR
partner: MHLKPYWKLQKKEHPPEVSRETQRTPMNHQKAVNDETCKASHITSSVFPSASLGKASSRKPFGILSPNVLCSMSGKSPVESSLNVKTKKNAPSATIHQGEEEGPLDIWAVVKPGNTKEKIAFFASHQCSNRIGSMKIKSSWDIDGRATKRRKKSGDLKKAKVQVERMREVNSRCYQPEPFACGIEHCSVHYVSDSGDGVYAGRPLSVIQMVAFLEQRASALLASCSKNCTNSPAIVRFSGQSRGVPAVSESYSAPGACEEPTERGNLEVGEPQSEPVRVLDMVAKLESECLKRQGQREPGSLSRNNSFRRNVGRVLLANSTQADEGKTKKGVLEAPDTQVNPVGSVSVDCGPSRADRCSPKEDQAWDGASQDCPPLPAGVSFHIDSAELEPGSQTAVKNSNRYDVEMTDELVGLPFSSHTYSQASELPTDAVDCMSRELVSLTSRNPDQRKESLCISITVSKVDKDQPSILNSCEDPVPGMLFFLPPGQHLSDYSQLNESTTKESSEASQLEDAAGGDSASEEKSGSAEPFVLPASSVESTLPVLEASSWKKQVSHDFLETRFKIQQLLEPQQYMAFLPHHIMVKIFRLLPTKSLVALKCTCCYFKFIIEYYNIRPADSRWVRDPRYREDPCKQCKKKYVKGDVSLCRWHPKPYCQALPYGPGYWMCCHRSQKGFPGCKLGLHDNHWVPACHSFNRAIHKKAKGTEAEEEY
B7: Neurogenin-3 (Homo sapiens), Q9Y4Z2 (parent)
chain: MTPQPSGAPTVQVTRETERSFPRASEDEVTCPTSAPPSPTRTRGNCAEAEEGGCRGAPRKLRARRGGRSRPKSELALSKQRRSRRKKANDRERNRMHNLNSALDALRGVLPTFPDDAKLTKIETLRFAHNYIWALTQTLRIADHSLYALEPPAPHCGELGSPGGSPGDWGSLYSPVSQAGSLSPAASLEERPGLLGATFSACLSPGSLAFSDFL
B8: Chondroitin sulfate N-acetylgalactosaminyltransferase 2 (Homo sapiens), Q8N6G5 (parent)
chain: MPRRGLILHTRTHWLLLGLALLCSLVLFMYLLECAPQTDGNASLPGVVGENYGKEYYQALLQEQEEHYQTRATSLKRQIAQLKQELQEMSEKMRSLQERRNVGANGIGYQSNKEQAPSDLLEFLHSQIDKAEVSIGAKLPSEYGVIPFESFTLMKVFQLEMGLTRHPEEKPVRKDKRDELVEVIEAGLEVINNPDEDDEQEDEEGPLGEKLIFNENDFVEGYYRTERDKGTQYELFFKKADLTEYRHVTLFRPFGPLMKVKSEMIDITRSIINIIVPLAERTEAFVQFMQNFRDVCIHQDKKIHLTVVYFGKEGLSKVKSILESVTSESNFHNYTLVSLNEEFNRGRGLNVGARAWDKGEVLMFFCDVDIYFSAEFLNSCRLNAEPGKKVFYPVVFSLYNPAIVYANQEVPPPVEQQLVHKKDSGFWRDFGFGMTCQYRSDFLTIGGFDMEVKGWGGEDVHLYRKYLHGDLIVIRTPVPGLFHLWHEKRCADELTPEQYRMCIQSKAMNEASHSHLGMLVFREEIETHLHKQAYRTNSEAVG
partner: B2 partner

The variants in one assay derive from B1. The note with it: with smad4_human SMAD4, Q13485.
Chain of smad4_human SMAD4, Q13485 (Q13485 whole entry): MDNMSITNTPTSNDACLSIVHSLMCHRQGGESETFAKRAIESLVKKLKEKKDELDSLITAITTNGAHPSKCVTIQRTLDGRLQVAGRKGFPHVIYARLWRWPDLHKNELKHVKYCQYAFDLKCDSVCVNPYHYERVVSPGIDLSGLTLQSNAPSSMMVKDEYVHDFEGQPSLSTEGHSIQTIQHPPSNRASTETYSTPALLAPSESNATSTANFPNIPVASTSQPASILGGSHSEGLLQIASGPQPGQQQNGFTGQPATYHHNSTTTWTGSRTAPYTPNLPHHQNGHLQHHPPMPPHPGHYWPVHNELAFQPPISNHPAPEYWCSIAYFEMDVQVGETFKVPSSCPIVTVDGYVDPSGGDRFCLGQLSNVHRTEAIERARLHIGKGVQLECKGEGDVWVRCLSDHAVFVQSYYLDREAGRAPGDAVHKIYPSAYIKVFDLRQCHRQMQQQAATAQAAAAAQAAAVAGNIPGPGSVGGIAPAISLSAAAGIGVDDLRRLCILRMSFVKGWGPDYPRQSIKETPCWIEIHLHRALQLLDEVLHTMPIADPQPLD
On to I170V, for which the “effect of a mutation on the interaction” value is “with no effect”.

In the next assay the parent is B1. The note with it: with ccd33_human CCDC33, Q8N5R6.
Chain of ccd33_human CCDC33, Q8N5R6 (Q8N5R6 whole entry): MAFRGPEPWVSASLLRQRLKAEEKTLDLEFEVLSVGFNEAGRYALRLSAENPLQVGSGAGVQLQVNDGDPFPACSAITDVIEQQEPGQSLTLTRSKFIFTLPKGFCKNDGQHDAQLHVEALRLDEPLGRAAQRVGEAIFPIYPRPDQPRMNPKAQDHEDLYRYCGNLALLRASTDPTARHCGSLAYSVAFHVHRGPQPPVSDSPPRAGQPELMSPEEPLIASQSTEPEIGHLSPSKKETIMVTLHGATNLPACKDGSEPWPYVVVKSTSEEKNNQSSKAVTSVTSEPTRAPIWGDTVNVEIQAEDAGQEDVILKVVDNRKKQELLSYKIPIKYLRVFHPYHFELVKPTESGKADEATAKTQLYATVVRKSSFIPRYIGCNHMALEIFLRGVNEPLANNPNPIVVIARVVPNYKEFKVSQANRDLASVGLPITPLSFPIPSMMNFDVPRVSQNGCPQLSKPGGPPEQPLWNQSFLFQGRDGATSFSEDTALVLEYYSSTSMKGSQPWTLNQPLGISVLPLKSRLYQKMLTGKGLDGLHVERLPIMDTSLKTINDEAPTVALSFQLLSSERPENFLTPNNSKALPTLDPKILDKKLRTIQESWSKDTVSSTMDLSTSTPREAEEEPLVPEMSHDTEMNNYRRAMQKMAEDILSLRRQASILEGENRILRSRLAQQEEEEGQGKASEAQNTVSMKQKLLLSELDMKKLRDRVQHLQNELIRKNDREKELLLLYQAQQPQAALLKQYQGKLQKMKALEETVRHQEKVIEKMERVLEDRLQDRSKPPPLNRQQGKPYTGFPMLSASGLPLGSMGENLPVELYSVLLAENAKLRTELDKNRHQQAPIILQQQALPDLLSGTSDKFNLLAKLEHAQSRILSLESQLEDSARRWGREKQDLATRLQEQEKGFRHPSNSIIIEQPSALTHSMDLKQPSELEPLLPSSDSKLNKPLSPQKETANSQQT
For the variant I170V, the “effect of a mutation on the interaction” value is recorded as “with no effect”.

The variants in the next assay derive from B2. The settings on record: with creb3_human CREB3, O43889.
Regarding D95G, the “effect of a mutation on the interaction” value is “with no effect”.

In another assay the parent is B3. The settings on record: with sat1_human SAT1, P21673.
Chain of sat1_human SAT1, P21673 (P21673 whole entry): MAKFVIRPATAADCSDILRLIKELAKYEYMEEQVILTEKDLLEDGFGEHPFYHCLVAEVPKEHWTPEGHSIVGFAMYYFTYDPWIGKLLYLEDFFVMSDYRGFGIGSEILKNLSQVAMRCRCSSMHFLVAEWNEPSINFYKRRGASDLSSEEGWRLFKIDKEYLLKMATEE
On to V526A, for which the “effect of a mutation on the interaction” value is given as “with no effect”.

The next assay covers variants of B4. The settings on record: with morn3_human MORN3, Q6PF18.
Consider N33S, for which the “effect of a mutation on the interaction” value is “with no effect”.

Variants of B5 are the subject of a further assay. The note with it: with eya2_human EYA2, O00167.
For D323N, the “effect of a mutation on the interaction” value is given as “with no effect”. For the variant N228T, the “effect of a mutation on the interaction” value is on record as “with no effect”.

Turning to S63A, the “effect of a mutation on the interaction” value was “with no effect”. R87C: the “effect of a mutation on the interaction” value is recorded as “with no effect”. With R208G, the “effect of a mutation on the interaction” value is listed as “with no effect”. The same measure, in the same setting: in the case of G136S it was “with no effect”.

In another assay the parent is B6. The settings on record: with fbx34_human FBXO34, Q9NWN3.
Take A89V: the “effect of a mutation on the interaction” value is listed as “with no effect”.

A further assay covers variants of B7. The settings on record: with htf4_human TCF12, Q99081.
Chain of htf4_human TCF12, Q99081 (Q99081 whole entry): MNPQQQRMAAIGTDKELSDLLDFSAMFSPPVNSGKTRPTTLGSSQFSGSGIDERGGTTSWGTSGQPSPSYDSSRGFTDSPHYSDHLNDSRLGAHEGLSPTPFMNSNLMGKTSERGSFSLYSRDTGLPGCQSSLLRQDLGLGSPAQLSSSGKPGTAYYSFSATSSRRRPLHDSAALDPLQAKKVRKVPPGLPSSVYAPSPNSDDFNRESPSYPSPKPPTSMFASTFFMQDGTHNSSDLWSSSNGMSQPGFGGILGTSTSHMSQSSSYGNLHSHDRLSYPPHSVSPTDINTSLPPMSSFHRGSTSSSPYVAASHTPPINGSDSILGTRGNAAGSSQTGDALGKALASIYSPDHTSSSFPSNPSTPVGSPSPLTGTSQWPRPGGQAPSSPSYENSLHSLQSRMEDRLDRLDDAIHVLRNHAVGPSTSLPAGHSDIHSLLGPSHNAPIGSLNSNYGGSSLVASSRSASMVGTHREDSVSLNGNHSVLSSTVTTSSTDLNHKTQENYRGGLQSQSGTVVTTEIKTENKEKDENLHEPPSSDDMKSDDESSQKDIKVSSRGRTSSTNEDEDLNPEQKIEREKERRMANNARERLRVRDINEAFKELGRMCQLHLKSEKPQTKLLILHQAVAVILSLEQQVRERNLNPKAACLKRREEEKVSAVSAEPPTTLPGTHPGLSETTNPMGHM
For F199S, the “effect of a mutation on the interaction” value is “with no effect”.

In another assay the parent is B8. The note with it: with creb3_human CREB3, O43889.
On to P479S, for which the “effect of a mutation on the interaction” value is “with no effect”.
